Measured values taken from patent US20110306057A1.

Biological target: PP2A regulatory subunit B56γ (human (endogenous in human HEK TER cells)), Q13362
Experiment: anti-FLAG co-IP from HEK TER cells, immunoblot, densitometry; +++ >90%, ++ 50-90%, + <50%
Conditions: remark: other sources report otherwise

Chain of PP2A regulatory subunit B56γ (human (endogenous in human HEK TER cells)), Q13362 (Q13362 whole entry): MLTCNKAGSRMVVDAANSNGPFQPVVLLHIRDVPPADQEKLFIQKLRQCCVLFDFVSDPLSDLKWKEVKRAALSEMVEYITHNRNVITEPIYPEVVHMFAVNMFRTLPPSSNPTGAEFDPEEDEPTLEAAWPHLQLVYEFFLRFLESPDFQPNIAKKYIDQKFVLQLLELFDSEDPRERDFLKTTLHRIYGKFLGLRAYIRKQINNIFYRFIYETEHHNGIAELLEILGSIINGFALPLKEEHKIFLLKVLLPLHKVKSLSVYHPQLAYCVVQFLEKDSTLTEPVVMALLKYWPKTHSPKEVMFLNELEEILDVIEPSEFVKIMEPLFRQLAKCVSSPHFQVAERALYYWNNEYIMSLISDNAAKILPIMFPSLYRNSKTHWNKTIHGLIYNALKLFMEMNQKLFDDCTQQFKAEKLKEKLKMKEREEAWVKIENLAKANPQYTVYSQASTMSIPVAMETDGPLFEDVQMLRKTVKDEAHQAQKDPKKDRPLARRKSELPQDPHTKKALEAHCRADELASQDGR

B1: wild type (WT) FLAG epitope-tagged version of PP2A Aβ, P30154 1-601 (protein, not shown: small tags and cut ends)
chain: MAGASELGTGPGAAGGDGDDSLYPIAVLIDELRNEDVQLRLNSIKKLSTIALALGVERTRSELLPFLTDTIYDEDEVLLALAEQLGNFTGLVGGPDFAHCLLPPLENLATVEETVVRDKAVESLRQISQEHTPVALEAYFVPLVKRLASGDWFTSRTSACGLFSVCYPRASNAVKAEIRQQFRSLCSDDTPMVRRAAASKLGEFAKVLELDSVKSEIVPLFTSLASDEQDSVRLLAVEACVSIAQLLSQDDLETLVMPTLRQAAEDKSWRVRYMVADRFSELQKAMGPKITLNDLIPAFQNLLKDCEAEVRAAAAHKVKELGENLPIEDRETIIMNQILPYIKELVSDTNQHVKSALASVIMGLSTILGKENTIEHLLPLFLAQLKDECPDVRLNIISNLDCVNEVIGIRQLSQSLLPAIVELAEDAKWRVRLAIIEYMPLLAGQLGVEFFDEKLNSLCMAWLVDHVYAIREAATNNLMKLVQKFGTEWAQNTIVPKVLVMANDPNYLHRMTTLFCINALSEACGQEITTKQMLPIVLKMAGDQVANVRFNVAKSLQKIGPILDTNALQGEVKPVLQKLGQDEDMDVKYFAQEAISVLALA
binding level (percent, co-immunoprecipitation densitometry): > 90%
